Assay results reported in PMC11633057, “Targeting MarA N‐terminal domain dynamics to prevent DNA binding”.
Changes are numbered by the printed parent chain.

Legend:
[1] = biological target: T1, MarA I13C/M47C I11C;M45C (Escherichia coli MG1655) (UniProt P0ACH5); experiment: EMSA; settings: EMSA: 20 mM Hepes pH 8, 100 mM MgCl2, 100 mM EDTA, 0.3 mg/mL BSA, +/- DTT, 0.8 uM MarA, DNA 15 nM (200 bp) or 200 nM (30 bp), 20 min 37 C, 8% native gel, SYBR …
T1 sequence: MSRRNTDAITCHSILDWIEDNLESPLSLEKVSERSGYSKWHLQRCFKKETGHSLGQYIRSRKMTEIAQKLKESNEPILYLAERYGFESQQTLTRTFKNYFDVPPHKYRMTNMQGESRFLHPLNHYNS

[2] = biological target: T2, MarA I16C/M47C I14C;M45C (Escherichia coli MG1655) (UniProt P0ACH5); experiment: EMSA; settings: EMSA: 20 mM Hepes pH 8, 100 mM MgCl2, 100 mM EDTA, 0.3 mg/mL BSA, +/- DTT, 0.8 uM MarA, DNA 15 nM (200 bp) or 200 nM (30 bp), 20 min 37 C, 8% native gel, SYBR …
T2 sequence: T1 sequence with C11I, I14C

[3] = biological target: T3, MarA S62C/L121C S60C;L119C (Escherichia coli MG1655) (UniProt P0ACH5); experiment: EMSA; settings: EMSA: 20 mM Hepes pH 8, 100 mM MgCl2, 100 mM EDTA, 0.3 mg/mL BSA, +/- DTT, 0.8 uM MarA, DNA 15 nM (200 bp) or 200 nM (30 bp), 20 min 37 C, 8% native gel, SYBR …
T3 sequence: T1 sequence with C11I, C45M, S60C, L119C

[4] = biological target: T4, MarA WT (Escherichia coli MG1655) (UniProt P0ACH5); experiment: EMSA; settings: EMSA: 20 mM Hepes pH 8, 100 mM MgCl2, 100 mM EDTA, 0.3 mg/mL BSA, +/- DTT, 0.8 uM MarA, DNA 15 nM (200 bp) or 200 nM (30 bp), 20 min 37 C, 8% native gel, SYBR …
T4 sequence: T1 sequence with C11I, C45M

MarA WT = biological target: T5, MarA WT (Escherichia coli MG1655, UniProt P0ACH5 1-127); experiment: EMSA; no DTT; EMSA: 20 mM Hepes pH 8, 100 mM MgCl2, 100 mM EDTA, 0.3 mg/mL BSA, +/- DTT, 0.8 uM MarA, DNA 15 nM (200 bp) or 200 nM (30 bp), 20 min 37 C, 8% native gel, SYBR green; settings: protein: recombinant; tags: N-terminal 6xHis (pET-15b); blunt
T5 sequence: T1 sequence with C11I, C45M

MarA I16C/M47C = biological target: T6, MarA I16C/M47C (Escherichia coli MG1655, UniProt P0ACH5 1-127, I14C;M45C); experiment: EMSA; 0.5 or 1 mM DTT; EMSA: 20 mM Hepes pH 8, 100 mM MgCl2, 100 mM EDTA, 0.3 mg/mL BSA, +/- DTT, 0.8 uM MarA, DNA 15 nM (200 bp) or 200 nM (30 bp), 20 min 37 C, 8% native gel, SYBR green; settings: protein: recombinant; tags: N-terminal 6xHis (pET-15b); blunt
T6 sequence: T1 sequence with C11I, I14C

MarA I13C/M47C = biological target: T7, MarA I13C/M47C (Escherichia coli MG1655, UniProt P0ACH5 1-127, I11C;M45C); experiment: EMSA; no DTT (disulfide); EMSA: 20 mM Hepes pH 8, 100 mM MgCl2, 100 mM EDTA, 0.3 mg/mL BSA, +/- DTT, 0.8 uM MarA, DNA 15 nM (200 bp) or 200 nM (30 bp), 20 min 37 C, 8% native gel, SYBR green; settings: protein: recombinant; tags: N-terminal 6xHis (pET-15b); blunt
T7 sequence: T1 sequence

GTTATCCTGTGTATCTGGGTTATCAGCGAAAAGTATAAGGGGTAAACAAGGATAAAGTGTCACTCTTTAGCTAGCCTTGCATCGCATTGAACAAAACTTGAACCGATTTAGCAAAACGTGGCATCGGTCAATTCATTCATTTGACTTATACTTGCCTGGGCAATATTATCCCCTGCAACTAATTACTTGCCAGGGCAAC (double strand) [marRAB 200-bp fragment]
binds: binding [1] | binding [2] | binding [3] | binding [4]

B1: marRAB 30-bp marbox (dsDNA)
DNA 1: GAACCGATTTAGCAAAACGTGGCATCGGTC
DNA 2: GACCGATGCCACGTTTTGCTAAATCGGTTC
binds: binding result (MarA WT) | binding result (MarA I16C/M47C) | binding result (MarA I13C/M47C)
